Experimental data: patent publication US20150030595A1 (ANTIBODY AND RECEPTOR THERAPEUTICS, published 2015)
Like-named read-outs stand apart in the source and are kept apart here.

T1: ACVR2B-Fc fusion protein (human, UniProt Q13705 19-137)
T1 construct: also called water-soluble ACVR2B
T1 sequence: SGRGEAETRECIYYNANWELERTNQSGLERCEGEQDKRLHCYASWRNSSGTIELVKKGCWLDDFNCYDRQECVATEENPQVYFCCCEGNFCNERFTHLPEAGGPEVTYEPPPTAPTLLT


Assays:
[1] = biological target: T1, ACVR2B-Fc fusion protein; assay: phage ELISA, ACVR2B coated
[2] = biological target: T1, ACVR2B-Fc fusion protein; assay: phage ELISA; OD on ACVR2B divided by OD on a-myc
[3] = biological target: T2, anti-myc antibody coated on the ELISA plate; assay: phage ELISA, anti-myc coated
T2 construct: also called a-MYC; a-myc

[4] = biological target: T1, ACVR2B-Fc fusion protein; assay: phage ELISA, ACVR2B coated; remark: listed apart in the source
Experimental: (§1) Colonies obtained from a group of the polyclonal phage antibodies having high binding capacity were cultured at a temperature of 37° C. for 16 hours in a 96-deep well plate (Bioneer 90030) containing 1 ml of a medium supplemented with 2×YTCM, 2% glucose, and 5 mM MgCl₂. 100 to 200 μl of the cultured cells were taken, and diluted with 1 ml of a medium supplemented with 2×YTCM, 2% glucose, and 5 mM MgCl₂ so that the OD₆₀₀ value of the cultured cells reached 1. Thereafter, the cells were cultured at a temperature of 37° C. for 2 to 3 hours in a 96-deep well plate so that the OD₆₀₀ value reached 0.5 to 0.7. Then, the cells were infected with an […] so that an MOI value became 1:20, and then cultured at a temperature of 30° C. for 16 hours in a medium supplemented with 2×YTCMK, 5 mM MgCl₂, and 1 mM IPTG. The cultured cells were centrifuged (at 4,500 rpm and 4° C. for 15 minutes) to collect a supernatant. Then, the supernatant was thoroughly dissolved in 4% PEG 6000 and 3% NaCl, and reacted on ice for an hour. The resulting reaction mixture was centrifuged again (at 8,000 rpm and 4° C. for 20 minutes), and the pellet was dissolved in PBS, and then centrifuged (at 12,000 rpm and 4° C. for 10 minutes) to obtain a supernatant, which was transferred to a new tube and stored at 4° C. Subsequently, a 96-well immunoplate was coated with antigens at a concentration of 100 ng per well by treating the immunoplate with the antigens at 4° C. for 16 hours, and each well was then blocked with skim milk (4%) dissolved in PBS. Each well was washed with 0.2 ml of PBS-Tween 20 (0.05%), and 100 μl of the monoclonal scFv-phages obtained by the above-described method were added to each well, and then reacted at room temperature for 2 hours. Each well was again washed four times with […] of PBS-Tween 20 (0.05%), and a secondary antibody, anti-M13-HRP, was diluted at 1:2000, added to each well, and then reacted at room temperature for an hour. Each well was washed with […] of PBS-Tween 20, colorimetrically developed, and then measured for optical density at 490 nm.

[5] = biological target: T3, Fc; assay: phage ELISA, Fc coated
T3 construct: domain: Fc

[6] = biological target: T3, Fc; assay: phage ELISA, Fc coated; remark: listed apart in the source
Experimental: as §1

[7] = biological target: T2, anti-myc antibody coated on the ELISA …; assay: phage ELISA, anti-myc coated; remark: listed apart in the source
Experimental: as §1

Binder	OD490 [1]	Ratio [2]	OD490 [3]	OD490 [4]	OD490 [5]	OD490 [6]	OD490 [7]
ACVR2B B11 (monoclonal scFv-phage) (scFv, V domains shown) VH: VQLVESGGGLVQPGRSLRLSCAASGFTFDNHAMHWVRRAPGKGLEWVSGISWNGGTTAYADSVKGRFSIFRDNAEKSLYLQMNSLRAEDTAVYYCARGSSSGRYYFDYWGQGTLVTVSS VL: DIQMTQSPSSVSASVGDRVTITCRASQGISTYLNWYQHQSGKAPKLLIYGAFRLQSGVPSRFSGSGSGTDFTLTISNLQPEDFATYYCQQAKNFPLTFGGGTKVDIK	2.99 OD	4.55	0.657 OD	2.99 OD	0.047 OD	0.0477 OD	0.657 OD
ACVR2B B12 (monoclonal scFv-phage) (scFv, V domains shown) VH: VQLVQSGAEVKKPGESLKISCKTSGYTFTHYWIGWVRQMPGKGLEWMGRINPTDSYADYSPSFQGHVIMSVDKSVSTAYLHWNSLKASDTAMYYCARGTALGVWGQGTTVTVSS VL: IQMTQSPSAMSASVGDRVTITCRASQGISNYLAWFQQKPGKVPKRLIYAASSLQSGVPSRFSGSGSGTEFTLTITSLQPEDFATYYCLQHKSYPYTFGQGTKLEIK	2.75 OD	1.89	1.46 OD	2.76 OD	0.044 OD	0.0447 OD	1.46 OD
ACVR2B C07 (monoclonal scFv-phage) (scFv, V domains shown, also called C7) VH: QMQLVQSGGGLVKPGGSLRLSCAPSGFTFRDYHMSWIRQAPGKGLEWISNISNSGTNIYYADSVKGRFTISRDNAKNSLYLQMNSLRAEDTAVYYCARGHYGMDIWGQGTTITVSS VL: DIQMTQSPSSLSASVGDRVTITCRASQGIANYLAWYQQKPGKAPKLLIYAASTLQSGVPSRFSGSGSGTDFTLTISSLQPEDFATYYCQQVKSYPLSFGGGTKVEIK	2.98 OD	6.75	0.44 OD	2.98 OD	0.043 OD	0.0435 OD	0.441 OD
ACVR2B C08 (monoclonal scFv-phage) (scFv, V domains shown, also called C8) VH: VQLVESGGGLVQPGGSLRLSCSASGFTFSSYAMHWVRQAPGKGLEYVSAISSNGGSTYYADSVKGRFTISRDNSKNTLYLQMNSLRAEDTAVYYCAKTYGGYGNAFDIWGQGTMITVSS VL: DIQMTQSPSSVSASVGDRVTITCRASQGISRWLAWYQQKPGKAPKLLIYAASNLQSGVPSRFSGSGSGTDFTLTINSLQPEDFATYFCQQGKSFPYTFGPGTKVEIK	2.87 OD	2.45	1.17 OD	2.86 OD	0.072 OD	0.0721 OD	1.17 OD
ACVR2B D07 (monoclonal scFv-phage) (scFv, V domains shown, also called D7) VH: QVQLVQSGAEVKKPGASVKVSCKASGYTFTSYYMHWVRQAPGQGLEWMGIINPSGGSTSYAQKFQGRVTMTRDTSTSTVYMELSSLRSEDTAVYYCAKDQSRGWYSNFDSWGQGTLVTVSS VL: DIQMTQSPSTLSASVGDRVTITCRASQTVSNWLAWYQLKPGKAPKLLIYKASSLESGVPSRFSGTGSETEFTLTISSLQPDDFATYYCQQYHSYPITFGQGTRLEIK	2.66 OD	11	0.24 OD	2.66 OD	0.042 OD	0.0428 OD	0.241 OD
ACVR2B D11 (monoclonal scFv-phage) (scFv, V domains shown) VH: MQLVQSGGGLVQPGRSLGLSCTASGFTFGDYAMSWVRQAPGKGLEWVGFIRSKAYGGTTEYAASVKGRLTISRDDSKSIAYLQMNSLRAEDTAVYYCARGHYGMDVWGQGTTVTVSS VL: DIQMTQSPSSLSASVGDRVTITCRASQNISNFLNWYQQKPGKAPKLLIYSASRLQRGVPSRFSGSGSGTDFTLTISSLQPEDFATYYCQQSYSTPYTFGQGTKLEIK	3.05 OD	3.66	0.833 OD	3.05 OD	0.042 OD	0.0429 OD	0.834 OD
ACVR2B F08 (monoclonal scFv-phage) (scFv, V domains shown, also called F8) VH: VQLVESGGGLVQPGGSLRLSCAASGFTFSDHYMDWVRQAPGKGLEWVGRTRNKANSYTTEYAASVKGRFTISRDDSKNSLYLQMNSLRAEDTAVYYCTKGAWLDYWGQGTLVTVSS VL: IQMTQSPSAMSASVGDRVTITCRASQGISNYLAWFQQKPGKVPKRLIYGASSLQGGVPSRFSGSGSGTEFTLTITSLQPEDFATYFCLQHKSYPLTFGPGTKVEIK	2.94 OD	3.75	0.783 OD	2.94 OD	0.116 OD	0.117 OD	0.783 OD
